From publication PMC7051176

Target: mannose receptor (MR) (human (endogenous in primary monocyte-derived macrophages)) (UniProt P22897)

Substance: HIV-1 89.6 Env (from UniProt Q73372) (natural protein)
- infection of primary human MDM by wild-type HIV-1 89.6 (intracellular Gag stain) with increasing concentrations of soluble mannan, normalized to 0 mg/mL mannan: 16 fold
